Data on 23 molecules can be found in PMC4139326, “Functional Roles of the Dimer-Interface Residues in Human Ornithine Decarboxylase” (PLoS ONE, 2014).

Substitutions are numbered along the chain they refer to. Names may count otherwise. Read-outs that look alike come from different tables or passages of the source.

The target in data set [1] is ornithine decarboxylase (Homo sapiens) (UniProt P11926). To be noted: cited from earlier work.
Data set [2] addresses antizyme inhibitor (Homo sapiens) (UniProt O14977). The settings on record: cited from earlier work.
Data set [3] has the same target. The settings on record: cited from earlier work. This is another data set of the same source.
Data set [4] has as its target ornithine decarboxylase (Homo sapiens) (UniProt P11926). To be noted: cited from earlier work. The source holds these as a separate data set.
Data set [5] concerns the molecule itself. The data set can be described thus: AUC; sedimentation velocity, 0.3, 0.6 and 0.9 mg/ml protein in 50 mM Tris-HCl pH 7.5, 293 K, 42,000 rpm; global fit to a monomer-dimer equilibrium model (SEDPHAT); dimer to monomers.
In data set [6] the target is T1, human antizyme inhibitor (human), O14977.
T1 chain: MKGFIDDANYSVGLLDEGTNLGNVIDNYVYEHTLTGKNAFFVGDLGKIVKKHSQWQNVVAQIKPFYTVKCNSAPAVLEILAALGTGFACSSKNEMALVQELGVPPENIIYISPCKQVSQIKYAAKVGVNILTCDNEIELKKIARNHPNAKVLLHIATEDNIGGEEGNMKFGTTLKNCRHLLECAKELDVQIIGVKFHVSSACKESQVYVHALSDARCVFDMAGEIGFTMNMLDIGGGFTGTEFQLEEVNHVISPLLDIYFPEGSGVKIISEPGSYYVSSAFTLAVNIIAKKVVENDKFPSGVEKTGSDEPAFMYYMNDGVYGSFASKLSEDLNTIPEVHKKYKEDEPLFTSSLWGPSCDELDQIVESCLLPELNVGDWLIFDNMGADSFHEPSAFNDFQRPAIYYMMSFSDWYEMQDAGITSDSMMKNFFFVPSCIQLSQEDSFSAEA
Described as above. The settings on record: remark: other sources report otherwise.

Chain of ornithine decarboxylase (Homo sapiens) (P11926 whole entry): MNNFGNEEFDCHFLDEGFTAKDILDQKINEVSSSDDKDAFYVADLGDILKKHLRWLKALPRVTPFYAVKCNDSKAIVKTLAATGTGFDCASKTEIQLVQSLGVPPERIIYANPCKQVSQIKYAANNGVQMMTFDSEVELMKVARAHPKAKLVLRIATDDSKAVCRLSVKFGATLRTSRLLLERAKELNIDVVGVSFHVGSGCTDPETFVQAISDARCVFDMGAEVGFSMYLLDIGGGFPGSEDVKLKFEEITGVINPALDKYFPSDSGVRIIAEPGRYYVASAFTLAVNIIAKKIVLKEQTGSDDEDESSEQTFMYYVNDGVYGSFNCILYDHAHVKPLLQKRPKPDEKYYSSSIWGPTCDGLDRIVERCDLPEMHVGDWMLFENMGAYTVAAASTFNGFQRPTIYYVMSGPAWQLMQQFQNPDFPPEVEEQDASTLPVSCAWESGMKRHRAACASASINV

Turning to “ornithine decarboxylase (from UniProt P11926)”, the Kd in data set [1] is 180 nM.

As to “antizyme inhibitor (from UniProt O14977)”, the dissociation constant (Kd) in data set [2] was 84000 nM.

For antizyme (from UniProt P54368), the Kd in data set [3] is 20 nM; in data set [4], 200 nM.

B1: human ornithine decarboxylase, wild type (enzyme)
chain: EEFDCHFLDEGFTAKDILDQKINEVSSSDDKDAFYVADLGDILKKHLRWLKALPRVTPFYAVKCNDSKAIVKTLAATGTGFDCASKTEIQLVQSLGVPPERIIYANPCKQVSQIKYAANNGVQMMTFDSEVELMKVARAHPKAKLVLRIATDDSKAVCRLSVKFGATLRTSRLLLERAKELNIDVVGVSFHVGSGCTDPETFVQAISDARCVFDMGAEVGFSMYLLDIGGGFPGSEDVKLKFEEITGVINPALDKYFPSDSGVRIIAEPGRYYVASAFTLAVNIIAKKIVLKEQTGSDDEDESSEQTFMYYVNDGVYGSFNCILYDHAHVKPLLQKRPKPDEKYYSSSIWGPTCDGLDRIVERCDLPEMHVGDWMLFENMGAYTVAAASTFNGFQRPTIYYVMSGPAWQLMQQFQNPDFPP
notes: ornithine decarboxylase (ODC), human; cDNA cloned into pQE30; Written as the protomer; it associates with itself to the dimer; also called ODC
For the molecule B1, the Kd in data set [5] was 100 ± 1 nM.

B2: human ornithine decarboxylase Y331S/Y389D/R277S/D332E/K169A (enzyme)
chain: B1 chain with K163A, R271S, Y325S, D326E, Y383D
notes: ornithine decarboxylase (ODC), human; cDNA cloned into pQE30; also called [ODC_4M]+K169A
On to B2, for which the Kd in data set [5] turned out to be 1490 ± 40 nM.

B3: human ornithine decarboxylase D134A (enzyme)
chain: B1 chain with D128A
notes: ornithine decarboxylase (ODC), human; cDNA cloned into pQE30
B3: the Kd in data set [5] was 120 ± 12 nM.

B4: human ornithine decarboxylase Y331S (enzyme)
chain: B1 chain with Y325S
notes: as for B3
Regarding B4, in data set [5], the dissociation constant Kd turned out to be 1100 ± 8 nM.

B5: human ornithine decarboxylase Y331S/Y389D/R277S/D332E/V322D (enzyme)
chain: B1 chain with R271S, V316D, Y325S, D326E, Y383D
notes: ornithine decarboxylase (ODC), human; cDNA cloned into pQE30; also called [ODC_4M]+V322D
In the case of B5, the Kd in data set [5] turned out to be 25200 ± 30 nM.

B6: human ornithine decarboxylase Y331S/Y389D/R277S/D332E (enzyme)
chain: B1 chain with R271S, Y325S, D326E, Y383D
notes: ornithine decarboxylase (ODC), human; cDNA cloned into pQE30; also called ODC_4M
As to B6, the Kd in data set [5] stood at 15900 ± 80 nM.

B7: human ornithine decarboxylase Y331S/Y389D/R277S/D332E/R165E (enzyme)
chain: B1 chain with R159E, R271S, Y325S, D326E, Y383D
notes: ornithine decarboxylase (ODC), human; cDNA cloned into pQE30; also called [ODC_4M]+R165E
Take B7: the Kd in data set [5] was found to be 13500 ± 450 nM.

B8: human ornithine decarboxylase R165E (enzyme)
chain: B1 chain with R159E
notes: as for B3
With B8, the Kd in data set [5] came to 110 ± 1 nM.

B9: human ornithine decarboxylase Y331S/Y389D (enzyme)
chain: B1 chain with Y325S, Y383D
notes: as for B3
Turning to B9, the Kd in data set [5] came to 160 ± 1 nM.

B10: human ornithine decarboxylase Y331S/Y389D/R277S (enzyme)
chain: B1 chain with R271S, Y325S, Y383D
notes: as for B3
As to B10, the Kd in data set [5] is 1030 ± 4 nM.

B11: human ornithine decarboxylase K294A (enzyme)
chain: B1 chain with K288A
notes: as for B3
Turning to B11, the Kd in data set [5] amounted to 100 ± 8 nM.

B12: human ornithine decarboxylase D332E (enzyme)
chain: B1 chain with D326E
notes: as for B3
On to B12, for which the Kd in data set [5] was found to be 30 ± 7 nM.

B13: human ornithine decarboxylase Y389D (enzyme)
chain: B1 chain with Y383D
notes: as for B3
For the molecule B13, the Kd in data set [5] was 690 ± 5 nM.

B14: human ornithine decarboxylase K169A (enzyme)
chain: B1 chain with K163A
notes: as for B3
For B14, the Kd in data set [5] worked out at 300 ± 8 nM.

B15: human ornithine decarboxylase Y331S/Y389D/R277S/D332E/V322D/D134A (enzyme)
chain: B1 chain with D128A, R271S, V316D, Y325S, D326E, Y383D
notes: ornithine decarboxylase (ODC), human; cDNA cloned into pQE30; also called [ODC_4M]+[V322D/D134A]; sextuple mutant
In the case of B15, the Kd in data set [5] stood at 52800 ± 500 nM.

B16: human ornithine decarboxylase R277S (enzyme)
chain: B1 chain with R271S
notes: as for B3
Regarding B16, the dissociation constant Kd in data set [5] is 80 ± 6 nM.

B17: human ornithine decarboxylase Y331S/Y389D/R277S/D332E/K294A (enzyme)
chain: B1 chain with R271S, K288A, Y325S, D326E, Y383D
notes: ornithine decarboxylase (ODC), human; cDNA cloned into pQE30; also called [ODC_4M]+K294A
B17: the Kd in data set [5] is 260 ± 60 nM.

B18: human ornithine decarboxylase Y331S/Y389D/R277S/D332E/D134A (enzyme)
chain: B1 chain with D128A, R271S, Y325S, D326E, Y383D
notes: ornithine decarboxylase (ODC), human; cDNA cloned into pQE30; also called [ODC_4M]+D134A
In the case of B18, the Kd in data set [5] was determined as 13300 ± 40 nM.

B19: human ornithine decarboxylase V322D (enzyme)
chain: B1 chain with V316D
notes: as for B3
With B19, in data set [5], the Kd turned out to be 560 ± 12 nM.

B20: human antizyme inhibitor, O14977 1-448 (natural protein)
chain: T1 chain
For the molecule B20, the Kd in data set [6] stood at 72300 nM.
